# B1: 4H8-E3: Mouse IgM monoclonal antibody against the human iRhom2 juxtamembrane domain adjacent to TMD1; HC VD SEQ ID NO 33, LC VD SEQ ID NO 40 (antibody, V domains shown)
# VH: EVQLQQSGPELVKPGASVKISCKASGYTFTDYYMNWVKQSHGKSLEWIGDINPNNGGTSYNQKFKGKATLTVDKSSNTAYMEFRSLTSEDSAVYYCARRGYYGVDYWGQGTTLTVSS
# VL: NIVMTQSPKSMSMSVGERVTLNCKASENVGTYVSWYQQKPEQSPKLLIFGASNRYTGVPDRFIGSGFATDFTLTISSVQAEDLADYHCGQSYSYPYTFGGGTKLEIK
# modifications: IgM constant regions; antibody sequence
# System: human iRhom1
# Assay: Peptide binding ELISA, binding specificity (Example 10), iRhom1 peptides
# Conditions: antibody 3 μg/ml PBS; peptides coated at 10 μg/ml; normalized to IgM isotype control
# Experimental: Another series of peptide binding ELISA experiments was conducted to address the specificity of the purified antibody 4H8-E3 of the invention, i.e. to question whether this antibody specifically recognizes peptides, in particular peptide 3, resembling the extracellular juxtamembrane region adjacent to the TMD1 of human iRhom2, or whether the antibody 4H8-E3 of the invention also binds to peptides reflecting the homologous region of the closely related family member human iRhom1.
# In brief, on day 1, Nunc black MaxiSorp® 96-well plates (Thermo Fisher Scientific, USA) were coated overnight with 100 μl per well of single biotinylated peptides 1 to 4, Mix A consisting of peptides 1 to 4, single biotinylated peptides 1b to 4b, and Mix D consisting of peptides 1b to 4b at 10 μg/m1 PBS each (thus, the final concentration of each peptide in both mixes was 2.5 μg/m1) at 4° C. On day 2, peptide solutions were removed and MaxiSorp® plates were blocked with 300 μl per well of Pierce protein-free (TBS) blocking buffer (Thermo Fisher Scientific, USA) at room temperature for 1.5 hours. […] Using an infinite M1000 PRO (Tecan Group, Switzerland) microplate reader, the fluorescence of each well was collected at an excitation wavelength of 435 nm and an emission wavelength of 555 nm.
molecule,measurement,value
B1,"binding to Mix D or individually coated peptides 1b, 2b, 3b and 4b (homologous sequences of human iRhom1)",does not bind at all
